In this experiment the target is FXa/TF/FVIIa.

In patent US5726038 one finds secreted FXa/TF/FVIIa-dependent chromogenic TFPI- activity data, which are given here for 1 substance.

In the case of “TFPI1-161 -117Gln (non-glycosylated variant of human tissue factor pathway inhibitor, first 161 amino acids, Asn117 replaced by Gln)”, the secreted FXa/TF/FVIIa-dependent chromogenic TFPI- activity worked out at 1 U/ml·OD.
